In the Human Domainome abundance scans (Beltran et al. 2025):

B1: Peroxisome proliferator-activated receptor delta, residues 71 to 145; numbered along this chain, Q03181 (parent)
chain: NMECRVCGDKASGFHYGVHACEGCKGFFRRTIRMKLEYEKCERSCKIQKKNRNKCQYCRFQKCLALGMSHNAIRF

Variants of: B1
Experiment: abundance fitness (aPCA) (normalised: wild type 0, dead -1); higher = more abundant; growth selection in yeast, the domain comes from the species named
Conditions: Homo sapiens

Abundance fitness: each site, then its substitutions
C4: W -0.747; H -0.576; N -0.738; S -0.669; F -0.675; Q -0.738; T -0.962; G -0.911; P -1.07; Y -0.693; M -0.461; I -1.14; K -0.775; E -0.571; R -0.558
A11: T -0.147; R -0.485; D -0.237; M -0.337; L -0.338; G -0.232; K -0.482; Q -0.546; V -0.306; P -0.197; H -0.218; C -0.367; S -0.091; I -0.154; F -0.228
K10: C -0.336; H -0.027; G -0.191; E 0.007; L -0.018; W -0.206; M -0.107; N -0.075; I -0.052; P -0.268; D -0.01; V 0; S -0.106; A -0.002; Q 0.08; F -0.283
C7: I -0.877; Y -0.673; P -0.759; D -0.952; M -0.984; R -0.793; W -0.895; K -0.63; F -0.867; G -0.504; S -0.575; T -0.862; L -0.782; Q -0.584; A -0.66; N -0.412; H -0.21; E -0.656
M2: W -0.527; N -0.21; T -0.156; L -0.315; E -0.227; P -0.58; K -0.249; D -0.056; R -0.417; F -0.432; Y -0.113; S -0.305; V -0.155; H -0.276
V6: P -0.923; S -1.07; C -0.873; T -1.18; D -0.823; G -0.841; E -0.561; Q -0.968; F -0.547; W -0.934; L -0.614; I 0.059; Y -0.748; M -0.674; H -0.914; A -0.619; R -0.839; N -0.624; K -0.745
D9: Q -0.374; A -0.065; W -0.618; H -0.668; K -0.548; R -0.348; M -0.436; G -0.198; E -0.154; C -0.305; F -0.283; T -0.327; V -0.331; N -0.152; I -0.345; L -0.63; S -0.178
G8: I -0.687; D -0.434; F -0.779; M -0.782; S -0.362; T -0.447; K -0.563; Y -0.438; A -0.382; E -0.32; L -0.598; W -0.812; H -0.064; P -0.891; V -0.899; C -0.582; Q -0.253
R5: H -0.257; S 0.034; G -0.045; D 0.032; P -0.376; I -0.176; A 0.175; Y -0.085; E 0.105; C -0.13; L 0.003; N 0.089; M 0.067; F -0.326; K 0.139; V 0.091; W -0.118; T -0.018; Q 0.113
E3: L -0.106; Y -0.182; F -0.086; T -0.102; C -0.278; K -0.089; D 0.059; Q -0.059; I -0.044; A -0.204; R -0.327; H -0.027; P -0.353; N -0.079; S -0.033; W -0.176; V -0.178
